Results as given in patent publication US20180256699A1.

What was measured:
[1] = biological target: Recombinant soluble murine αMβ2 integrin (R&D Systems) (murine) (UniProt P05555); assay: ELISA, murine αMβ2 integrin coated, domain serially diluted, with calcium, rabbit anti-ACT detection
[2] = biological target: Recombinant soluble murine αMβ2 integrin (R&D Systems) (murine) (UniProt P05555); assay: ELISA, murine αMβ2 integrin coated, ACT serially diluted, with calcium, rabbit anti-ACT detection
[3] = biological target: αMβ2 integrin on J774A.1 murine macrophage cells (murine) (UniProt P05555); assay: flow cytometry: biotinylated ACT on J774A.1 cells on ice, no scAb, detected with streptavidin-PE; background: cells only 274, non-biotinylated ACT 292

Substance	EC50 [1]	EC50 [2]	mean fluorescence (PE-A) [3]
RTX751*, RTX domain of ACT, residues 751-1706, acylated (from UniProt J7QLC0 751-1706)	20 nM	–	–
Bordetella adenylate cyclase toxin (ACT), full-length, acylated (from UniProt J7QLC0 1-1706)	–	20 nM	4810
